This note sets out measurements from article doi:10.1101/2022.04.29.490116.

Series [1] deals with StbA of plasmid R388, full length, C-terminally (His)6-tagged (enterobacterial plasmid R388). The experiment in a line: SEC. Background: In gel filtration, larger molecules generally elute earlier.
Series [2] concerns the target T1, StbA1-75 (Escherichia coli plasmid R388, UniProt Q6I6C4 1-75).
T1 sequence: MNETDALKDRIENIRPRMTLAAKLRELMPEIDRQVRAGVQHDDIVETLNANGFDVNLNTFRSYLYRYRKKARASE
The series can be described thus: EMSA.

The target in series [3] is T2, StbA (Escherichia coli plasmid R388, UniProt Q6I6C4 1-141).
T2 sequence: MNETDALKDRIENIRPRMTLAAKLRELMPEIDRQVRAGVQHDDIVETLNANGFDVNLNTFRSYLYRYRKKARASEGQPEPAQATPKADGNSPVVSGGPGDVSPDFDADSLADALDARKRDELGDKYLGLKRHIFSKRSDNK
The series can be described thus: EMSA. On the technique in general: A gel shift assay detects complexes by their altered migration in electrophoresis.

Series [4] concerns the target T2, StbA. The series can be described thus: EMSA. This is another data set of the same source.
Series [5] addresses T1, StbA1-75. The series can be described thus: EMSA. The source holds these as a separate data set.
The target in series [6] is T2, StbA. The series can be described thus: EMSA. The source holds these as a separate data set.
Series [7] deals with T1, StbA1-75. The series can be described thus: EMSA. This is another data set of the same source.
Series [8] addresses T2, StbA. The experiment in a line: EMSA. This is another data set of the same source.
Series [9] concerns the target T2, StbA. The series can be described thus: EMSA. The source holds these as a separate data set.
Series [10] has as its target T2, StbA. The experiment in a line: EMSA. This is another data set of the same source.

Where two headings read alike, the source gives them in different places.

In the case of “StbA of plasmid R388, full length, C-terminally (His)6-tagged (natural protein)”, the stoichiometry N in [1] came to 2.

B1: stb5a (dsDNA)
DNA 1: CCGTTTTAGCTCATTTTCTGCATCATTGTAGCACCATCATAGCATTATAGTTGCATCATTGCTGCACGATAACCCAATGC
DNA 2: GCATTGGGTTATCGTGCAGCAATGATGCAACTATAATGCTATGATGGTGCTACAATGATGCAGAAAATGAGCTAAAACGG
Consider B1, for which the binding result in series [2] and in [3] was “binds” in each case.

B2: stb5b (dsDNA)
DNA 1: TTGCCTGCATCATAGCTGTCCTATGACTGCATCACATTTGCATCATACATGCATTATTTC
DNA 2: GAAATAATGCATGTATGATGCAAATGTGATGCAGTCATAGGACAGCTATGATGCAGGCAA
In the case of B2, the binding result in series [4] is listed as “binds”.

B3: stb3 (dsDNA)
DNA 1: TAGCTCATTCTGTTCTTGCTTGCTGCATCATCACTGCATCATAGCTGCATCATCAATGCCGATCTAGCTCATTACTGTTC
DNA 2: GAACAGTAATGAGCTAGATCGGCATTGATGATGCAGCTATGATGCAGTGATGATGCAGCAAGCAAGAACAGAATGAGCTA
With B3, the binding result in [5] and in series [6] was “binds” in each case.

B4: stb2 (dsDNA)
DNA 1: CCGTTCTAGCTCATTCTGTTCTTGCTTGCTGCATCATCACTGCATCATCCCAATGCCGATCTAGCTCATTACTGTTCTAT
DNA 2: ATAGAACAGTAATGAGCTAGATCGGCATTGGGATGATGCAGTGATGATGCAGCAAGCAAGAACAGAATGAGCTAGAACGG
With B4, the binding result in series [7] and in [8] was “binds” in each case.

B5: stb5 (dsDNA)
DNA 1: TCTGTTCTTGCTTGCTGCATCATCACTGCATCATCACTGCATCATCACTGCATCATCACTGCATCATATGCCGATCTAGC
DNA 2: GCTAGATCGGCATATGATGCAGTGATGATGCAGTGATGATGCAGTGATGATGCAGTGATGATGCAGCAAGCAAGAACAGA
As to B5, in series [9], the binding result is reported as “binds”.

B6: stb0 (dsDNA)
DNA 1: CCTTAAACGGCCTATTGTTTCCAAGCGGAGTGACAACAAATGAAAGTAGCTGTGCTTAAGTATTCAACAAAGCCGCCGTC
DNA 2: GACGGCGGCTTTGTTGAATACTTAAGCACAGCTACTTTCATTTGTTGTCACTCCGCTTGGAAACAATAGGCCGTTTAAGG
Turning to B6, the binding result in series [10] is “no binding”.

One may read the stoichiometry N as the number of molecules, sites or subunits per partner or assembly.
